The values that follow are results of earlier work, collected in publication PMC3597628.

In series [1] the target is (Pro)renin receptor (Homo sapiens) (UniProt O75787).
For series [2] the target is unchanged. This is another data set of the same source.

Like-named read-outs stand apart in the source and are kept apart here.

UniProt O75787, sequence (O75787 17-302): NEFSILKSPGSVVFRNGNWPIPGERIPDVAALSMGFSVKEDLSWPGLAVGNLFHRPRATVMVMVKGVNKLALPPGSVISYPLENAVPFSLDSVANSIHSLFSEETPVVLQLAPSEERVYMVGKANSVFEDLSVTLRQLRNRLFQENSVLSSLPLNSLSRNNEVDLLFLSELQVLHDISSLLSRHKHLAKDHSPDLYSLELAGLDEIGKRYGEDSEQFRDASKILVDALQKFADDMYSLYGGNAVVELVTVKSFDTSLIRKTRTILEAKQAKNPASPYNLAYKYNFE

As to Prorenin (from UniProt P00797), in series [1], the Kd is 1.2 nM. Prorenin (from UniProt P08424): the Kd in series [2] was 8.3 nM.

As a reminder, the Kd is the equilibrium constant for the complex coming apart.
